Reference: paper PMC7912279 (2021)

How the values were obtained:
[1] = biological target: T1, gastrin-releasing peptide receptor (Homo sapiens, UniProt P30550); test: LigandTracer on PC-3 cells (1:2 model, KD1)
[2] = biological target: T1, gastrin-releasing peptide receptor; test: LigandTracer on PC-3 cells (1:2 model, KD2)

T1 sequence (P30550 whole entry): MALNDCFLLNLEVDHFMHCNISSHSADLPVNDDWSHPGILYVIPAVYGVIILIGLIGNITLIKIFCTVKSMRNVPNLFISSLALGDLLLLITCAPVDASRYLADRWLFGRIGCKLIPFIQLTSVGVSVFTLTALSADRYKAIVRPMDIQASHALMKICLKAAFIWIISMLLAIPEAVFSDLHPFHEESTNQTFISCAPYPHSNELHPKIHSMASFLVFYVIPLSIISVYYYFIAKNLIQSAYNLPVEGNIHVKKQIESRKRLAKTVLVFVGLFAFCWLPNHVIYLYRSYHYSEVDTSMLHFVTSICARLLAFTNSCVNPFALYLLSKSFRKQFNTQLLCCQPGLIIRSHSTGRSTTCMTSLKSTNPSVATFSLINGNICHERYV

B1: maSES-PEG2-RM26 (peptide)
chain: SESFQWAVGHL
modifications: 99mTc, mercaptoacetyl-Ser-Glu-Ser-PEG2-D-Phe-Gln-Trp-Ala-Val-Gly-His-Sta-Leu-NH2
B1 was tested, and the Kd [1] was 0.849 nM and the Kd [2] was 1.4 nM.

B2: maSSS-PEG2-RM26 (peptide)
chain: SSSFQWAVGHL
modifications: 99mTc, mercaptoacetyl-Ser-Ser-Ser-PEG2-D-Phe-Gln-Trp-Ala-Val-Gly-His-Sta-Leu-NH2
With B2 the Kd [1] was 0.061 nM and the Kd [2] was 1.2 nM.
